From patent US20040018603
Values joined by “and” are separate entries in the source; they are usually repeats but may differ in a detail not shown here. Equal entries are not always repeated.

Assays:
[1] = biological target: GST-Cdc25[254-316]-WT (62-amino acid region of Xenopus Cdc25 fused to glutathione S-transferase)

B1: His6-Xcds1 (histidine-tagged Xcds1 purified from E. coli) (protein)
chain: MMSRDTKTESQQSQGTSSSSSSSAPQSYSQSSSSGTLSSLDTVPVQDLASIPEDPEIDEDIPQPWGRLWALGKGFLNHDCLHEEYVFGRDKKCDYTFDIPVLNQTDRYKTYSKRHFRIFQELGHGHSRVANIEDLSGNGTFVNKEIIGKGRTLPLTNNAEIALSLPTNKVFVFSDLSVDDQTIYPKDFIDKYIMSRPIGSGACGEVKLAFQKSVCKKVAVKIISKRKFKMNTSSNEHPISVDTEIEILKKLDHPCIIKIENFFDSEDFYYIVLELMEGGELFDRVVNSTRLREPIAKLYFYQMLLAVQYLHENGVIHRDLKPENVLLSSTSEECCIKITDFGQSKILGETSLMRTLCGTPTYLAPEVLNTAGTTGYSSAVDCWSLGVILFVCLCGYPPFSEQNSNIPLKNQIAEGKYTYIAAAWRNVSEQAFDLVKNLLVVDPEQRLTTKQALEHPWLQDDSMKHTVERLMYGVDHTMPPPIKKNIIRKRGHEWDQDASTSSCSEILPTSAEKRAKR
phosphorylation in kinase assay with 32P-ATP (SDS-PAGE, PhosphorImager) (GST-Cdc25[254-316]-S287A): a serine-to-alanine mutation at this position abolished the phosphorylation
phosphorylation in kinase assay with 32P-ATP (SDS-PAGE, PhosphorImager) [1]: His6-Xcds1, but not a catalytically inactive mutant (His6-Xcds1-N324A), phosphorylated a 62-amino acid region of Xenopus Cdc25 fused to glutathione S-transferase (GST-Cdc25[254-316]-WT)

B2: His6-Xcds1-N324A (catalytically inactive mutant) (protein)
chain: MMSRDTKTESQQSQGTSSSSSSSAPQSYSQSSSSGTLSSLDTVPVQDLASIPEDPEIDEDIPQPWGRLWALGKGFLNHDCLHEEYVFGRDKKCDYTFDIPVLNQTDRYKTYSKRHFRIFQELGHGHSRVANIEDLSGNGTFVNKEIIGKGRTLPLTNNAEIALSLPTNKVFVFSDLSVDDQTIYPKDFIDKYIMSRPIGSGACGEVKLAFQKSVCKKVAVKIISKRKFKMNTSSNEHPISVDTEIEILKKLDHPCIIKIENFFDSEDFYYIVLELMEGGELFDRVVNSTRLREPIAKLYFYQMLLAVQYLHENGVIHRDLKPEAVLLSSTSEECCIKITDFGQSKILGETSLMRTLCGTPTYLAPEVLNTAGTTGYSSAVDCWSLGVILFVCLCGYPPFSEQNSNIPLKNQIAEGKYTYIAAAWRNVSEQAFDLVKNLLVVDPEQRLTTKQALEHPWLQDDSMKHTVERLMYGVDHTMPPPIKKNIIRKRGHEWDQDASTSSCSEILPTSAEKRAKR
phosphorylation in kinase assay with 32P-ATP (SDS-PAGE, PhosphorImager) [1]: but not a catalytically inactive mutant (His6-Xcds1-N324A)

B3: Hyperphosphorylated Xcds1 protein immunoprecipitated from egg extracts containing poly(dT)40 (protein)
chain: MMSRDTKTESQQSQGTSSSSSSSAPQSYSQSSSSGTLSSLDTVPVQDLASIPEDPEIDEDIPQPWGRLWALGKGFLNHDCLHEEYVFGRDKKCDYTFDIPVLNQTDRYKTYSKRHFRIFQELGHGHSRVANIEDLSGNGTFVNKEIIGKGRTLPLTNNAEIALSLPTNKVFVFSDLSVDDQTIYPKDFIDKYIMSRPIGSGACGEVKLAFQKSVCKKVAVKIISKRKFKMNTSSNEHPISVDTEIEILKKLDHPCIIKIENFFDSEDFYYIVLELMEGGELFDRVVNSTRLREPIAKLYFYQMLLAVQYLHENGVIHRDLKPENVLLSSTSEECCIKITDFGQSKILGETSLMRTLCGTPTYLAPEVLNTAGTTGYSSAVDCWSLGVILFVCLCGYPPFSEQNSNIPLKNQIAEGKYTYIAAAWRNVSEQAFDLVKNLLVVDPEQRLTTKQALEHPWLQDDSMKHTVERLMYGVDHTMPPPIKKNIIRKRGHEWDQDASTSSCSEILPTSAEKRAKR
kinase activity of the immunoprecipitate, increase over background [1]: 5 fold and 6 fold

B4: Xenopus laevis protein kinase Cds1 (Xcds1), endogenous protein in Xenopus egg extracts (protein)
chain: MMSRDTKTESQQSQGTSSSSSSSAPQSYSQSSSSGTLSSLDTVPVQDLASIPEDPEIDEDIPQPWGRLWALGKGFLNHDCLHEEYVFGRDKKCDYTFDIPVLNQTDRYKTYSKRHFRIFQELGHGHSRVANIEDLSGNGTFVNKEIIGKGRTLPLTNNAEIALSLPTNKVFVFSDLSVDDQTIYPKDFIDKYIMSRPIGSGACGEVKLAFQKSVCKKVAVKIISKRKFKMNTSSNEHPISVDTEIEILKKLDHPCIIKIENFFDSEDFYYIVLELMEGGELFDRVVNSTRLREPIAKLYFYQMLLAVQYLHENGVIHRDLKPENVLLSSTSEECCIKITDFGQSKILGETSLMRTLCGTPTYLAPEVLNTAGTTGYSSAVDCWSLGVILFVCLCGYPPFSEQNSNIPLKNQIAEGKYTYIAAAWRNVSEQAFDLVKNLLVVDPEQRLTTKQALEHPWLQDDSMKHTVERLMYGVDHTMPPPIKKNIIRKRGHEWDQDASTSSCSEILPTSAEKRAKR
kinase activity of the immunoprecipitate [1]: endogenous Xcds1 immunoprecipitated from egg extracts phosphorylated this substrate well
